Data taken from article PMC9376891.

Target: Rae1(31-368);Nup98(157-213) GLEBS (human;human, UniProt P78406;P52948 31-368;157-213, |)
Test: EMSA
Details: protein: recombinant;recombinant; tags: untagged;N-terminal His tag removed by TEV; copies: 1;1; label: 5' FAM; single strand

Rae1(31-368);Nup98(157-213) GLEBS, sequence (P78406 31-368, chain 1 of 2): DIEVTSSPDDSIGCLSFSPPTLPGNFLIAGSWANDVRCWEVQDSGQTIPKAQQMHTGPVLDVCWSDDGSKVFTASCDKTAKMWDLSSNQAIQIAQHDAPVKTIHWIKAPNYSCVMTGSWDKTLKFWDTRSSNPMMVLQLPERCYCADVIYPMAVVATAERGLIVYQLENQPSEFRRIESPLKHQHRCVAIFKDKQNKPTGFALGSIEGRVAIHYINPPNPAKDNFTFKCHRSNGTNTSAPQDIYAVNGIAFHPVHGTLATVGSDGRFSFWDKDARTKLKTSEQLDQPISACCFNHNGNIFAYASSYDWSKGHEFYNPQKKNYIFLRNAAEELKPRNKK
Rae1(31-368);Nup98(157-213) GLEBS, sequence (P52948 157-213, chain 2 of 2): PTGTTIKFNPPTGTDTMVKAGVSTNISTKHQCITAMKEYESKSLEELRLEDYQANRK

UUUUUUUUUU (ssRNA) [10-mer poly(U) ssRNA]
binding result: binds
